Consider 1 molecule from patent publication US20230110128A1, “USE OF ANTIBODY DRUG CONJUGATES COMPRISING TUBULIN DISRUPTING AGENTS TO TREAT SOLID TUMOR” (Seagen Inc., priority 2018, published 2023).

One assay has as its system MCF7 breast cancer cells. The experiment in a line: Western blot analysis of ER stress response in MCF7 cells. Format: cell-based. The settings on record: FIG. 16A. The procedure: MCF7 breast cancer cells were treated with 100 nM MMAE for 16 hours and harvested RIPA buffer for western blot analysis.
(§1) MCF7 cells were treated with MMAE or an MMAE-containing ADC (SGN-LIV1A) for 16 hours and harvested in […] for western bot analysis. […] Induction of ICD is also characterized by the secretion of ATP and HMGB1. Extracellular ATP serves as a strong chemotactic signal, promoting immune cell migration to the tumor site. Upon arrival, extracellular HMGB1 signals through various pro-inflammatory receptors (TLR2, TLR4, RAGE) to activate antigen-presenting cells, thereby promoting immune activity within the tumor.
In general terms: Immunoblotting shows a protein as a band on a membrane.

The test system of assay [1] is MCF7 cells. The experiment in a line: ATP secretion from MCF7 cells. It counts as cell-based.
For assay [2], the system named is MCF7 cells. The experiment in a line: HMGB1 release from MCF7 cells. It counts as cell-based. The procedure:
Induction of ICD is also characterized by the secretion of ATP and HMGB1. Extracellular ATP serves as a strong chemotactic signal, promoting immune cell migration to the tumor site. Upon arrival, extracellular HMGB1 signals through various pro-inflammatory receptors (TLR2, TLR4, RAGE) to activate antigen-presenting cells, thereby promoting immune activity within the tumor.
as §1

The subject of assay [3] is PC-3 cells subcutaneously engrafted. Kind of assay: Immune cell infiltration of PC-3 tumors by flow cytometry. Format: in vivo, athymic nude mice. The settings on record: single intraperitoneal dose, 8 days post-ADC treatment. From the text:
Athymic nude mice were subcutaneously engrafted with PC-3 cells. Upon reaching 200 cubic millimeters, mice received a single intraperitoneal dose of an MMAE-containing ADC (SGN-LIV1A or anti-CD71-MMAE). 8 days post-ADC treatment, tumors were excised and assessed for immune cell infiltration and composition by flow cytometry.
In general terms: A flow cytometer gives signals particle by particle.

For assay [4] the test system is unchanged. The experiment in a line: Cytokine/chemokine production in PC-3 tumor-bearing mice by ELISA. It counts as in vivo, athymic nude mice. The settings on record: PC-3 tumors, single intraperitoneal dose, 8 days post-ADC treatment. The method, then:
In another study, athymic nude mice were subcutaneously engrafted with PC-3 cells. Upon reaching 200 cubic millimeters, mice received a single intraperitoneal dose of an MMAE-containing ADC (SGN-LIV1A or anti-CD71-MMAE). 8 days post-ADC treatment, tumors were excised and homogenized in RIPA buffer and cytokine/chemokine production was measured by ELISA. Peripheral cytokine levels were also measured in the serum by ELISA.
Background: An ELISA detects its analyte on a solid surface through an enzyme-linked reagent.

Assay [5] concerns MCF7 cells subcutaneously engrafted. Kind of assay: Immune cell composition of MCF7 tumors by flow cytometry. It counts as in vivo. The note with it: SOD mice with MCF7 tumors, single intraperitoneal dose, 8 days post-ADC treatment. From the text: […] were subcutaneously engrafted with MCF7 cells. Upon reaching 200 cubic millimeters, mice received a single intraperitoneal dose of an MMAE-containing ADC (SGN-LIV1A or anti-CD71-MMAE). 8 days post-ADC treatment, tumors were excised and assessed for immune cell composition by flow cytometry.

B1: SGN-LIV1A (conjugate, chains of the INN, looked up)
VH: QVQLVQSGAEVKKPGASVKVSCKASGLTIEDYYMHWVRQAPGQGLEWMGWIDPENGDTEYGPKFQGRVTMTRDTSINTAYMELSRLRSDDTAVYYCAVHNAHYGTWFAYWGQGTLVTVSS
VL: DVVMTQSPLSLPVTLGQPASISCRSSQSLLHSSGNTYLEWYQQRPGQSPRPLIYKISTRFSGVPDRFSGSGSGTDFTLKISRVEAEDVGVYYCFQGSHVPYTFGGGTKVEIK
modifications: vedotin (MMAE) payload
As for B1, the “Severe ER stress (phosphorylation of IRE1 and JNK)” value in the assay on MCF7 breast cancer cells was “elicits severe ER stress (phosphorylation of IRE1 and JNK)”. In addition, in the assay on MCF7 cells [1], the “Secretion of ATP” value was “increased secretion”. For the same molecule, the ATP secretion entry in the assay on MCF7 cells [1] (after 48 hours of treatment) is recorded as “Increased AIR secretion”. The “Secretion of HMGB1” value with MCF7 cells [2] is listed as “increased secretion”. In assay [3], the “Activation of tumor-infiltrating immune cells” value is on record as “enhanced activation” and the “Infiltration of immune cells into tumors” value is reported as “increased infiltration of immune cells”. In assay [4], the “Cytokine and chemokine production (intratumoral and serum)” value is “elevated cytokine and chemokine production”. Besides, the “Immune activation by tumor-infiltrating immune cells” value in assay [5] was “increased level of immune activation by tumor-infiltrating immune cells”.
